For 1 substance, fold of the AlphaLISA signal of the wild-type TbtA leader sequence and AlphaLISA signal, percent of the wild-type TbtA leader sequence results are on record in publication doi:10.1101/2024.03.25.586624.

The target of assay [1] is synthetic sfGFP peptide, peptide variant 14. Description: AlphaScreen or HTRF.
The target in assay [2] is synthetic sfGFP peptide, peptide variant 9. Description: AlphaScreen or HTRF. For orientation: Bead proximity is the source of the signal in Alpha formats.

In turn, “MBP-TbtF RRE domain (domain or fragment)” came in with a fold of the AlphaLISA signal of the wild-type TbtA leader sequence in assay [1] of 2 fold. Also, the AlphaLISA signal, percent of the wild-type TbtA leader sequence in assay [2] stood at 25%.
